Measurements as given in US9260500B2, “Peptide and use thereof” (Takeda Pharmaceutical Company Limited, priority 2009, dated 2016).
Starred links: 1 amine or outer side, 2 acyl side, 3 side chain; linkers in the order of their positions; H or OH if unused. Non-standard residues stand in square brackets, D forms with d. *: point of attachment. X9 = (cis-2,6-dimethylmorpholin-4-yl)carbonyl, C[C@@H]1CN(C(=O)*)C[C@H](C)O1; Ala(piperidin-4-yl) = O=C([C@H](CC1CCN([*:3])CC1)N[*:1])[*:2]; Arg(Me) = CNC(=N)NCCC[C@H](N)C(=O)O; tBuAla = CC(C)(C)C[C@H](N)C(=O)O; 4Pal = N[C@@H](Cc1ccncc1)C(=O)O; dHyp = O=C(O)[C@H]1C[C@H](O)CN1; Cha = N[C@@H](CC1CCCCC1)C(=O)O; dIva = CC[C@@](C)(N)C(=O)O; Iva = CC[C@](C)(N)C(=O)O; Abu = CC[C@H](N)C(=O)O; Aib = CC(C)(N)C(=O)O

Tests used:
male C57EL/6J mice = assay: 3-Days Continuous Subcutaneous Administration Test-1 (food intake suppressing activity); assay type: in vivo, mouse; conditions: 0.03 mg/kg/day, subcutaneous Alzet pump, food consumption over 3 days; relative to food intake suppression rate for PYY(3-36) (1 mg/kg/day) taken as 100%
Procedure, shortened: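 Male […] mice, 12-13 weeks, received compound at 0.03 mg/kg/day by subcutaneous osmotic pump (50% DMSO vehicle), housed singly with free food access. Food consumed over 3 days measured; suppression expressed relative to PYY(3-36) (1 mg/kg/day) set as 100%.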

human Y2 receptor [1] = target: T1, human Y2 receptor (Homo sapiens, UniProt P49146); assay: Receptor Binding Assay (RBA) for Human Y2, [125I]-PYY displacement on hY2R/CHO membrane fraction; conditions: IC50 of test compound/IC50 of PYY(3-36) (PYY(3-36) taken as 1)
T1 construct: expressed in transfected cells; membrane fraction
T1 sequence (P49146 1-381): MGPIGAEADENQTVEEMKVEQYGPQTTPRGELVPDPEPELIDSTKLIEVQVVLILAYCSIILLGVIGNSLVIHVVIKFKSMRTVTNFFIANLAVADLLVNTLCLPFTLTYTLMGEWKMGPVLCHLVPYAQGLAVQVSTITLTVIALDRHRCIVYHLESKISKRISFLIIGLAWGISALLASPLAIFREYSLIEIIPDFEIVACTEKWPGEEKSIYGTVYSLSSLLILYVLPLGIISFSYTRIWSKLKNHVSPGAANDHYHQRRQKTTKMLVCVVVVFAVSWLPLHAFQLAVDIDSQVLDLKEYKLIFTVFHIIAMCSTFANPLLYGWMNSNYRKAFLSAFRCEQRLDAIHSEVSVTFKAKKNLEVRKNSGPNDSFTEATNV
Procedure, shortened: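 Read-out is [125I]-PYY displacement from membranes of CHO/dhfr− cells stably transfected with human Y2R. Membranes were obtained by disrupting cells in a buffer of 10 mM NaHCO3, 5 mM EDTA and protease inhibitors.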

human Y2 receptor [2] = target: T1, human Y2 receptor; assay: Human Y2 Receptor G Protein Binding Assay (GBA), [35S]GTPγS; assay type: biochemical; conditions: EC50 of test compound/EC50 of PYY(3-36) (PYY3-36 taken as 1), hY2R/CHO membrane fraction
Procedure, shortened: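 Agonism measured as [35S]GTPγS binding, read by GF/C filtration and scintillation counting after 120 min at room temperature, using human Y2 membranes at 1 μg protein/mL in pH 7.4 Tris/MgCl2/NaCl/GDP buffer. Compound serially diluted 100 μM–1 nM; EC50 normalized to PYY(3-36) (ratio = compound/PYY).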

| Substance | food intake suppression rate (%) (male C57EL/6J mice) | RBA IC50 Ratio (human Y2 receptor [1]) | GBA EC50 Ratio (human Y2 receptor [2]) |
| --- | --- | --- | --- |
| (cis-2,6-Dimethylmorpholin-4-yl)carbonyl-[D-Pro24, Pya(4)26, Cha27,36, Aib28,31, Lys30]-PYY(23-36) (X9-S[dP]R[4Pal][Cha][Aib]NK[Aib]TRQR[Cha]-NH2; SMILES C[C@@H]1CN(C(=O)N[C@@H](CO)C(=O)N2CCC[C@@H]2C(=O)N[C@@H](CCCNC(=N)N)C(=O)N[C@@H](Cc2ccncc2)C(=O)N[C@@H](CC2CCCCC2)C(=O)NC(C)(C)C(=O)N[C@@H](CC(N)=O)C(=O)N[C@@H](CCCCN)C(=O)NC(C)(C)C(=O)N[C@H](C(=O)N[C@@H](CCCNC(=N)N)C(=O)N[C@@H](CCC(N)=O)C(=O)N[C@@H](CCCNC(=N)N)C(=O)N[C@@H](CC2CCCCC2)C(N)=O)[C@@H](C)O)C[C@H](C)O1) [compound 269] | 11% | 0.91 | 0.65 |
| Ac-[Aib24,28,31, Pya(4)26, Cha27,36, Lys30]-PYY(23-36) (Ac-S[Aib]R[4Pal][Cha][Aib]NK[Aib]TRQR[Cha]-NH2; SMILES CC(=O)N[C@@H](CO)C(=O)NC(C)(C)C(=O)N[C@@H](CCCNC(=N)N)C(=O)N[C@@H](Cc1ccncc1)C(=O)N[C@@H](CC1CCCCC1)C(=O)NC(C)(C)C(=O)N[C@@H](CC(N)=O)C(=O)N[C@@H](CCCCN)C(=O)NC(C)(C)C(=O)N[C@H](C(=O)N[C@@H](CCCNC(=N)N)C(=O)N[C@@H](CCC(N)=O)C(=O)N[C@@H](CCCNC(=N)N)C(=O)N[C@@H](CC1CCCCC1)C(N)=O)[C@@H](C)O) [compound No. 240] | 36% | 0.81 | 1.1 |
| Ac-[D-Hyp24, Iva25,28, Pya(4)26, Cha27,36, Lys30, Aib31]-PYY(23-36) (Ac-S[dHyp][Iva][4Pal][Cha][Iva]NK[Aib]TRQR[Cha]-NH2; ends and bridges not checked) [compound No. 298] | 56% | 0.86 | 1.0 |
| Ac-[D-Hyp24, Iva25, Pya(4)26, Cha27,36, Aib28,31, Lys30]-PYY(23-36) (Ac-S[dHyp][Iva][4Pal][Cha][Aib]NK[Aib]TRQR[Cha]-NH2; SMILES CC[C@](C)(NC(=O)[C@H]1C[C@H](O)CN1C(=O)[C@H](CO)NC(C)=O)C(=O)N[C@@H](Cc1ccncc1)C(=O)N[C@@H](CC1CCCCC1)C(=O)NC(C)(C)C(=O)N[C@@H](CC(N)=O)C(=O)N[C@@H](CCCCN)C(=O)NC(C)(C)C(=O)N[C@H](C(=O)N[C@@H](CCCNC(=N)N)C(=O)N[C@@H](CCC(N)=O)C(=O)N[C@@H](CCCNC(=N)N)C(=O)N[C@@H](CC1CCCCC1)C(N)=O)[C@@H](C)O) [compound No. 297] | 45% | 1.5 | 1.4 |
| Ac-[D-Hyp24, Iva25, Pya(4)26, Cha27,36, Leu(Me)28, Lys30, Aib31]-PYY(23-36) (Ac-S[dHyp][Iva][4Pal][Cha][tBuAla]NK[Aib]TRQR[Cha]-NH2; SMILES CC[C@](C)(NC(=O)[C@H]1C[C@H](O)CN1C(=O)[C@H](CO)NC(C)=O)C(=O)N[C@@H](Cc1ccncc1)C(=O)N[C@@H](CC1CCCCC1)C(=O)N[C@@H](CC(C)(C)C)C(=O)N[C@@H](CC(N)=O)C(=O)N[C@@H](CCCCN)C(=O)NC(C)(C)C(=O)N[C@H](C(=O)N[C@@H](CCCNC(=N)N)C(=O)N[C@@H](CCC(N)=O)C(=O)N[C@@H](CCCNC(=N)N)C(=O)N[C@@H](CC1CCCCC1)C(N)=O)[C@@H](C)O) [compound No. 335] | 27% | 0.97 | 1.5 |
| Ac-[D-Iva24, Pya(4)26, Cha27,36, Aib28,31, Lys30]-PYY(23-36) (Ac-S[dIva]R[4Pal][Cha][Aib]NK[Aib]TRQR[Cha]-NH2; SMILES CC[C@@](C)(NC(=O)[C@H](CO)NC(C)=O)C(=O)N[C@@H](CCCNC(=N)N)C(=O)N[C@@H](Cc1ccncc1)C(=O)N[C@@H](CC1CCCCC1)C(=O)NC(C)(C)C(=O)N[C@@H](CC(N)=O)C(=O)N[C@@H](CCCCN)C(=O)NC(C)(C)C(=O)N[C@H](C(=O)N[C@@H](CCCNC(=N)N)C(=O)N[C@@H](CCC(N)=O)C(=O)N[C@@H](CCCNC(=N)N)C(=O)N[C@@H](CC1CCCCC1)C(N)=O)[C@@H](C)O) [compound No. 242] | 25% | 0.39 | 1.3 |
| Ac-[D-Pro24, Abu26, Cha27,36, Aib28,31, Lys30]-PYY(23-36) (Ac-S[dP]R[Abu][Cha][Aib]NK[Aib]TRQR[Cha]-NH2; SMILES CC[C@H](NC(=O)[C@H](CCCNC(=N)N)NC(=O)[C@H]1CCCN1C(=O)[C@H](CO)NC(C)=O)C(=O)N[C@@H](CC1CCCCC1)C(=O)NC(C)(C)C(=O)N[C@@H](CC(N)=O)C(=O)N[C@@H](CCCCN)C(=O)NC(C)(C)C(=O)N[C@H](C(=O)N[C@@H](CCCNC(=N)N)C(=O)N[C@@H](CCC(N)=O)C(=O)N[C@@H](CCCNC(=N)N)C(=O)N[C@@H](CC1CCCCC1)C(N)=O)[C@@H](C)O) [compound No. 320] | 18% | 2.3 | 0.98 |
| Ac-[D-Pro24, Ala(4Pip)25, Pya(4)26, Cha27,36, Aib28,31, Lys30]-PYY(23-36) [compound No. 312] (Ac-S[dP][Ala(piperidin-4-yl)][4Pal][Cha][Aib]NK[Aib]TRQR[Cha]-NH2; SMILES CC(=O)N[C@@H](CO)C(=O)N1CCC[C@@H]1C(=O)N[C@@H](CC1CCNCC1)C(=O)N[C@@H](Cc1ccncc1)C(=O)N[C@@H](CC1CCCCC1)C(=O)NC(C)(C)C(=O)N[C@@H](CC(N)=O)C(=O)N[C@@H](CCCCN)C(=O)NC(C)(C)C(=O)N[C@H](C(=O)N[C@@H](CCCNC(=N)N)C(=O)N[C@@H](CCC(N)=O)C(=O)N[C@@H](CCCNC(=N)N)C(=O)N[C@@H](CC1CCCCC1)C(N)=O)[C@@H](C)O) | 10% | 4.3 | 5.8 |
| Ac-[D-Pro24, Ala(4Pip)26, Cha27,36, Aib28,31, Lys30]-PYY(23-36) (Ac-S[dP]R[Ala(piperidin-4-yl)][Cha][Aib]NK[Aib]TRQR[Cha]-NH2; SMILES CC(=O)N[C@@H](CO)C(=O)N1CCC[C@@H]1C(=O)N[C@@H](CCCNC(=N)N)C(=O)N[C@@H](CC1CCNCC1)C(=O)N[C@@H](CC1CCCCC1)C(=O)NC(C)(C)C(=O)N[C@@H](CC(N)=O)C(=O)N[C@@H](CCCCN)C(=O)NC(C)(C)C(=O)N[C@H](C(=O)N[C@@H](CCCNC(=N)N)C(=O)N[C@@H](CCC(N)=O)C(=O)N[C@@H](CCCNC(=N)N)C(=O)N[C@@H](CC1CCCCC1)C(N)=O)[C@@H](C)O) [compound No. 310] | 12% | 1.2 | 1.5 |
| Ac-[D-Pro24, Arg(Me)25,30, Pya(4)26, Cha27,36, Aib28,31]-PYY(23-36) (Ac-S[dP][Arg(Me)][4Pal][Cha][Aib]N[Arg(Me)][Aib]TRQR[Cha]-NH2; SMILES CNC(=N)NCCC[C@H](NC(=O)[C@H](CC(N)=O)NC(=O)C(C)(C)NC(=O)[C@H](CC1CCCCC1)NC(=O)[C@H](Cc1ccncc1)NC(=O)[C@H](CCCNC(=N)NC)NC(=O)[C@H]1CCCN1C(=O)[C@H](CO)NC(C)=O)C(=O)NC(C)(C)C(=O)N[C@H](C(=O)N[C@@H](CCCNC(=N)N)C(=O)N[C@@H](CCC(N)=O)C(=O)N[C@@H](CCCNC(=N)N)C(=O)N[C@@H](CC1CCCCC1)C(N)=O)[C@@H](C)O) [compound No. 315] | 45% | 1.5 | 1.5 |
| Ac-[D-Pro24, Arg(Me)25, Pya(4)26, Cha27,36, Aib28,31, Lys30]-PYY(23-36) [compound No. 319] | 40% | 1.1 | 1.3 |
| Ac-[D-Pro24, Iva25,28, Pya(4)26, Cha27,36, Lys30, Aib31]-PYY(23-36) (Ac-S[dP][Iva][4Pal][Cha][Iva]NK[Aib]TRQR[Cha]-NH2; SMILES CC[C@](C)(NC(=O)[C@H](CC1CCCCC1)NC(=O)[C@H](Cc1ccncc1)NC(=O)[C@](C)(CC)NC(=O)[C@H]1CCCN1C(=O)[C@H](CO)NC(C)=O)C(=O)N[C@@H](CC(N)=O)C(=O)N[C@@H](CCCCN)C(=O)NC(C)(C)C(=O)N[C@H](C(=O)N[C@@H](CCCNC(=N)N)C(=O)N[C@@H](CCC(N)=O)C(=O)N[C@@H](CCCNC(=N)N)C(=O)N[C@@H](CC1CCCCC1)C(N)=O)[C@@H](C)O) [compound No. 296] | 36% | 1.1 | 1.0 |
| Ac-[D-Pro24, Iva25, Pya(4)26, Cha27,36, Aib28,31, Arg(Me)30]-PYY(23-36) (Ac-S[dP][Iva][4Pal][Cha][Aib]N[Arg(Me)][Aib]TRQR[Cha]-NH2) [compound No. 316] | 29% | 2.4 | 1.7 |
